What is called Kd is the free concentration of one partner at which half of the binding sites on the other are occupied at equilibrium, for simple one-to-one binding.

Data set [1] deals with DdbA (Chlamydia trachomatis L2). Kind of data set: BLI. Particulars: BLI (Octet QKe, Ni-NTA sensors, His-protein immobilized): 0.1 M phosphate, 0.15 M NaCl, pH 7.2; nucleic acid 720, 240, 80 nM; temperature not stated.
Data set [2] relates to HctA (Chlamydia trachomatis L2). Description: BLI. The conditions noted are these: BLI (Octet QKe, Ni-NTA sensors, His-protein immobilized): 0.1 M phosphate, 0.15 M NaCl, pH 7.2; nucleic acid 720, 240, 80 nM; temperature not stated. For orientation: Biolayer interferometry detects binding as a change in optical thickness at a sensor tip.

As for dsDNA oligo 60% GC, the figures for the equilibrium dissociation constant (Kd) in data set [1] and in data set [2] were 7.3 nM and 2.3 nM, respectively.

(Values after publication PMC8343073.)
